The Human Domainome abundance scans (Beltran et al. 2025)
± gives the uncertainty stated by the source.

B1: Ankyrin-2, residues 3571 to 3650; numbered along this chain, Q01484 (parent)
chain: ERLAYIADHLGFSWTELARELDFTEEQIHQIRIENPNSLQDQSHALLKYWLERDGKHATDTNLVECLTKINRMDIVHLME

Variants of: B1
Assay: abundance fitness (aPCA) (normalised: wild type 0, dead -1); higher = more abundant; growth selection in yeast, the domain comes from the species named
Details: Homo sapiens

Abundance fitness of substitutions, site by site:
H44: D -0.935 ± 0.45, L -0.008 ± 0.099, Q -0.062 ± 0.15, P -0.992 ± 0.46, Y -0.21 ± 0.27, T -0.269 ± 0.47, G -0.099 ± 0.12, S 0.016 ± 0.22
D41: N -0.02 ± 0.09, K -0.034 ± 0.14, W -0.2 ± 0.12, T -0.013 ± 0.075, E -0.077 ± 0.11, P -0.243 ± 0.071, S -0.005 ± 0.054, I 0.004 ± 0.066, A -0.01 ± 0.071, C -0.109 ± 0.072, L -0.038 ± 0.05, R -0.058 ± 0.05, G 0.006 ± 0.05, Y -0.213 ± 0.074, F -0.168 ± 0.073, M -0.019 ± 0.079, Q -0.024 ± 0.11, V -0.065 ± 0.057
Q42: W -0.481 ± 0.27, I -0.33 ± 0.19, R -0.12 ± 0.12, V -0.204 ± 0.18, P -0.768 ± 0.41, C 0.007 ± 0.17, H -0.807 ± 0.49, S 0.073 ± 0.13, T -0.538 ± 0.46, G -0.323 ± 0.19, A -0.068 ± 0.16
S43: A -0.281 ± 0.14, P -0.32 ± 0.18, Y -0.508 ± 0.43, R -0.701 ± 0.24, L -0.216 ± 0.1, W -0.638 ± 0.32, V -0.25 ± 0.17, G -0.093 ± 0.13, M -1.13 ± 0.43
A45: H -0.197 ± 0.15, D 0.097 ± 0.29, R -0.002 ± 0.27, C -0.189 ± 0.25, G -0.231 ± 0.21, L -0.002 ± 0.13, V 0.101 ± 0.11
E25: Q -0.01 ± 0.11, Y -0.122 ± 0.12, N 0.108 ± 0.18, M -0.113 ± 0.074, V -0.064 ± 0.056, P 0.021 ± 0.07, L -0.062 ± 0.057, R -0.096 ± 0.062, S -0.038 ± 0.055, K 0.15 ± 0.24, T -0.065 ± 0.077
S38: M -0.059 ± 0.079, P -0.832 ± 0.089, I -0.396 ± 0.18, W -0.358 ± 0.075, L -0.086 ± 0.043, F -0.155 ± 0.14, Y -0.474 ± 0.41, N -0.065 ± 0.14, E -0.092 ± 0.11, T -0.039 ± 0.065, H -0.14 ± 0.14, D -0.038 ± 0.15, R -0.096 ± 0.047, V -0.092 ± 0.055, Q -0.103 ± 0.078
E26: W -0.105 ± 0.069, C -0.209 ± 0.092, Q -0.129 ± 0.17, M -0.041 ± 0.098, N -0.033 ± 0.11, D -0.053 ± 0.12, G -0.059 ± 0.046, I -0.045 ± 0.14, Y -0.118 ± 0.14, H 0.039 ± 0.13, R -0.068 ± 0.044, F -0.282 ± 0.17, P -0.086 ± 0.064, A -0.087 ± 0.068, S -0.091 ± 0.057, K 0.035 ± 0.1, L -0.057 ± 0.059, T -0.027 ± 0.066
Q27: V -0.042 ± 0.051, H 0.101 ± 0.14, P -0.675 ± 0.097, R -0.09 ± 0.071, E 0.007 ± 0.071, M -0.006 ± 0.1, A -0.116 ± 0.081, K 0.051 ± 0.14, Y -0.236 ± 0.13, I -0.039 ± 0.13, L -0.039 ± 0.066, T 0.1 ± 0.12, S 0.006 ± 0.071, G -0.144 ± 0.06, N 0.08 ± 0.41
I31: P -1.19 ± 0.17, A -0.545 ± 0.084, N -0.242 ± 0.25, H -0.707 ± 0.5, S -0.772 ± 0.087, C 0.027 ± 0.18, G -0.936 ± 0.1, T -0.157 ± 0.074, E -0.791 ± 0.45, V -0.057 ± 0.07, Q -0.743 ± 0.12, W -0.336 ± 0.085, D -1 ± 0.29, Y -0.42 ± 0.18, F 0.023 ± 0.21, M -0.177 ± 0.12, L -0.06 ± 0.065, R -1.04 ± 0.12
L39: W -0.045 ± 0.12, E -0.027 ± 0.058, P -0.016 ± 0.086, M -0.042 ± 0.12, K -0.087 ± 0.13, R -0.109 ± 0.053, Q -0.102 ± 0.11, S -0.025 ± 0.061, T -0.134 ± 0.074, G -0.108 ± 0.049, V -0.043 ± 0.069, Y 0.076 ± 0.095, D -0.031 ± 0.11, A 0.031 ± 0.072, I 0.071 ± 0.25, C -0.017 ± 0.14, H -0.155 ± 0.14, F -0.013 ± 0.14
H29: L -0.006 ± 0.077, P -0.961 ± 0.16, A -0.013 ± 0.057, K -0.004 ± 0.18, M -0.133 ± 0.16, W -0.137 ± 0.11, I -0.082 ± 0.079, Q -0.025 ± 0.097, E -0.041 ± 0.17, F 0.062 ± 0.25, D -0.079 ± 0.18, T -0.005 ± 0.085, V 0.035 ± 0.064, S -0.041 ± 0.056, G 0.027 ± 0.065, N -0.108 ± 0.25, R -0.111 ± 0.06, C -0.07 ± 0.15, Y -0.294 ± 0.2
